Measured values: US20230140797A1 (published 2023)

T1: human FcγRIIb extracellular domain with C-terminal His tag (human, UniProt P31994 43-217)
T1 sequence (looked up): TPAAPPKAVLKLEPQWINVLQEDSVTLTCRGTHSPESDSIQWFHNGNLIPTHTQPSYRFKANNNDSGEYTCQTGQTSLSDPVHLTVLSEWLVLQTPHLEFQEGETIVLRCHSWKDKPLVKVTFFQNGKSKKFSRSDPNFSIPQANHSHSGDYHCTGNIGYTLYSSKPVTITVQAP


target: T1, human FcγRIIb extracellular domain with …; assay: SPR Biacore, ratio of KDs

| Binder | KD (IIb) of the parent polypeptide/KD (IIb) of the altered polypeptide |
| --- | --- |
| IL6R-BP100/IL6R-L (antibody, human IgG1, kappa) heavy: QVQLQESGPGLVKPSETLSLTCAVSGHSISHDHAWSWVRQPPGEGLEWIGFISYSGITNYNPSLQGRVTISRDNSKNTLYLQMNSLRAEDTAVYYCARSLARTTAMDYWGEGTLVTVSSASTKGPSVFPLAPSSKSTSGGTAALGCLVKDYFPEPVTVSWNSGALTSGVHTFPAVLQSSGLYSLSSVVTVPSSSLGTQTYICNVNHKPSNTKVDKKVEPKSCDKTHTCPPCPAPELLGGDSVFLFPPKPKDTLMISRTPEVTCVVVDVAHEDPEVKFNWYVDGVEVHNAKTKPREEQYNSTYRVVSVLTVLHQDWLNGKEYKCKVSNKALPAPIEKTISKAKGQPREPQVYTLPPSRDELTKNQVSLTCLVKGFYPSDIAVEWESNGQPENNYKTTPPVLDSDGSFFLYSKLTVDKSRWQQGNVFSCSVMHEALHNHYTQESLSLSP light: not shown | 2.9 fold (parent IL6R-B3/IL6R-L) |
| IL6R-BP117/IL6R-L (antibody, human IgG1, kappa) heavy: QVQLQESGPGLVKPSETLSLTCAVSGHSISHDHAWSWVRQPPGEGLEWIGFISYSGITNYNPSLQGRVTISRDNSKNTLYLQMNSLRAEDTAVYYCARSLARTTAMDYWGEGTLVTVSSASTKGPSVFPLAPSSKSTSGGTAALGCLVKDYFPEPVTVSWNSGALTSGVHTFPAVLQSSGLYSLSSVVTVPSSSLGTQTYICNVNHKPSNTKVDKKVEPKSCDKTHTCPPCPAPELLGGDSVFLFPPKPKDTLMISRTPEVTCVVVDVSHEDPEVKFNWYVDGVEVHNAKTKPREEQYNSTYRVVSVLTVLHQDWLNGKEYKCKVSNDALPAPIEKTISKAKGQPREPQVYTLPPSRDELTKNQVSLTCLVKGFYPSDIAVEWESNGQPENNYKTTPPVLDSDGSFFLYSKLTVDKSRWQQGNVFSCSVMHEALHNHYTQESLSLSP light: not shown | 3.9 fold (parent IL6R-B3/IL6R-L) |
| IL6R-BP112/IL6R-L (antibody, human IgG1, kappa) heavy: QVQLQESGPGLVKPSETLSLTCAVSGHSISHDHAWSWVRQPPGEGLEWIGFISYSGITNYNPSLQGRVTISRDNSKNTLYLQMNSLRAEDTAVYYCARSLARTTAMDYWGEGTLVTVSSASTKGPSVFPLAPSSKSTSGGTAALGCLVKDYFPEPVTVSWNSGALTSGVHTFPAVLQSSGLYSLSSVVTVPSSSLGTQTYICNVNHKPSNTKVDKKVEPKSCDKTHTCPPCPAPELLGGDSVFLFPPKPKDTLMISRTPEVTCVVVDVSHEDGEVKFNWYVDGVEVHNAKTKPREEQYNSTYRVVSVLTVLHQDWLNGKEYKCKVSNKALPAPIEKTISKAKGQPREPQVYTLPPSRDELTKNQVSLTCLVKGFYPSDIAVEWESNGQPENNYKTTPPVLDSDGSFFLYSKLTVDKSRWQQGNVFSCSVMHEALHNHYTQESLSLSP light: not shown | 9.7 fold (parent IL6R-B3/IL6R-L) |
| IL6R-BP103/IL6R-L (antibody, human IgG1, kappa) heavy: QVQLQESGPGLVKPSETLSLTCAVSGHSISHDHAWSWVRQPPGEGLEWIGFISYSGITNYNPSLQGRVTISRDNSKNTLYLQMNSLRAEDTAVYYCARSLARTTAMDYWGEGTLVTVSSASTKGPSVFPLAPSSKSTSGGTAALGCLVKDYFPEPVTVSWNSGALTSGVHTFPAVLQSSGLYSLSSVVTVPSSSLGTQTYICNVNHKPSNTKVDKKVEPKSCDKTHTCPPCPAPELLGGDSVFLFPPKPKDTLMISRTPEVTCVVVDVVHEDPEVKFNWYVDGVEVHNAKTKPREEQYNSTYRVVSVLTVLHQDWLNGKEYKCKVSNKALPAPIEKTISKAKGQPREPQVYTLPPSRDELTKNQVSLTCLVKGFYPSDIAVEWESNGQPENNYKTTPPVLDSDGSFFLYSKLTVDKSRWQQGNVFSCSVMHEALHNHYTQESLSLSP light: not shown | 2.5 fold (parent IL6R-B3/IL6R-L) |
| IL6R-BP106/IL6R-L (antibody, human IgG1, kappa) heavy: QVQLQESGPGLVKPSETLSLTCAVSGHSISHDHAWSWVRQPPGEGLEWIGFISYSGITNYNPSLQGRVTISRDNSKNTLYLQMNSLRAEDTAVYYCARSLARTTAMDYWGEGTLVTVSSASTKGPSVFPLAPSSKSTSGGTAALGCLVKDYFPEPVTVSWNSGALTSGVHTFPAVLQSSGLYSLSSVVTVPSSSLGTQTYICNVNHKPSNTKVDKKVEPKSCDKTHTCPPCPAPELLGGDSVFLFPPKPKDTLMISRTPEVTCVVVDVSDEDPEVKFNWYVDGVEVHNAKTKPREEQYNSTYRVVSVLTVLHQDWLNGKEYKCKVSNKALPAPIEKTISKAKGQPREPQVYTLPPSRDELTKNQVSLTCLVKGFYPSDIAVEWESNGQPENNYKTTPPVLDSDGSFFLYSKLTVDKSRWQQGNVFSCSVMHEALHNHYTQESLSLSP light: not shown | 3.3 fold (parent IL6R-B3/IL6R-L) |
| IL6R-BP110/IL6R-L (antibody, human IgG1, kappa) heavy: QVQLQESGPGLVKPSETLSLTCAVSGHSISHDHAWSWVRQPPGEGLEWIGFISYSGITNYNPSLQGRVTISRDNSKNTLYLQMNSLRAEDTAVYYCARSLARTTAMDYWGEGTLVTVSSASTKGPSVFPLAPSSKSTSGGTAALGCLVKDYFPEPVTVSWNSGALTSGVHTFPAVLQSSGLYSLSSVVTVPSSSLGTQTYICNVNHKPSNTKVDKKVEPKSCDKTHTCPPCPAPELLGGDSVFLFPPKPKDTLMISRTPEVTCVVVDVSNEDPEVKFNWYVDGVEVHNAKTKPREEQYNSTYRVVSVLTVLHQDWLNGKEYKCKVSNKALPAPIEKTISKAKGQPREPQVYTLPPSRDELTKNQVSLTCLVKGFYPSDIAVEWESNGQPENNYKTTPPVLDSDGSFFLYSKLTVDKSRWQQGNVFSCSVMHEALHNHYTQESLSLSP light: not shown | 2.1 fold (parent IL6R-B3/IL6R-L) |
| IL6R-BP116/IL6R-L (antibody, human IgG1, kappa) heavy: QVQLQESGPGLVKPSETLSLTCAVSGHSISHDHAWSWVRQPPGEGLEWIGFISYSGITNYNPSLQGRVTISRDNSKNTLYLQMNSLRAEDTAVYYCARSLARTTAMDYWGEGTLVTVSSASTKGPSVFPLAPSSKSTSGGTAALGCLVKDYFPEPVTVSWNSGALTSGVHTFPAVLQSSGLYSLSSVVTVPSSSLGTQTYICNVNHKPSNTKVDKKVEPKSCDKTHTCPPCPAPELLGGDSVFLFPPKPKDTLMISRTPEVTCVVVDVSHEDPEVKFNWYVDGVEVHNAKTKPREEQYNSTYRVVSVLTVLHQDWLNGKEYKCKVSNTALPAPIEKTISKAKGQPREPQVYTLPPSRDELTKNQVSLTCLVKGFYPSDIAVEWESNGQPENNYKTTPPVLDSDGSFFLYSKLTVDKSRWQQGNVFSCSVMHEALHNHYTQESLSLSP light: not shown | 2.8 fold (parent IL6R-B3/IL6R-L) |
| IL6R-BP102/IL6R-L (antibody, human IgG1, kappa) heavy: QVQLQESGPGLVKPSETLSLTCAVSGHSISHDHAWSWVRQPPGEGLEWIGFISYSGITNYNPSLQGRVTISRDNSKNTLYLQMNSLRAEDTAVYYCARSLARTTAMDYWGEGTLVTVSSASTKGPSVFPLAPSSKSTSGGTAALGCLVKDYFPEPVTVSWNSGALTSGVHTFPAVLQSSGLYSLSSVVTVPSSSLGTQTYICNVNHKPSNTKVDKKVEPKSCDKTHTCPPCPAPELLGGDSVFLFPPKPKDTLMISRTPEVTCVVVDVQHEDPEVKFNWYVDGVEVHNAKTKPREEQYNSTYRVVSVLTVLHQDWLNGKEYKCKVSNKALPAPIEKTISKAKGQPREPQVYTLPPSRDELTKNQVSLTCLVKGFYPSDIAVEWESNGQPENNYKTTPPVLDSDGSFFLYSKLTVDKSRWQQGNVFSCSVMHEALHNHYTQESLSLSP light: not shown | 3.4 fold (parent IL6R-B3/IL6R-L) |
